Patent US20150093398A1, “Methods and Compositions for Treating or Preventing Cancer” (MERCK SHARP & DOHME CORP., priority 2005, published 2015)

Tested on: SJCRH30 rhabdomyosarcoma cells
Assay: SJCRH30 rhabdomyosarcoma xenograft tumor growth in mice (05 IGFR-01, 19D12 and Cytoxan)
Assay type: in vivo, Athymic nude mice
Method: Athymic nude mice were inoculated with tumor cells in the right flank, subcutaneously, along with Matrigel (1:1 cells:gel). In these experiments, 5×10^6 cells/mouse in a 1:1 mix with regular matrigel were inoculated subcutaneously. Tumor size was measured with calipers and the data was entered into the labcat program. Mice were grouped with average size of 100 mm^3. Tumor size and body weight were measured twice weekly.
In these experiments, mice were dosed twice per week, intraperitoneally (i.p.) with antibody 19D12 and chemotherapeutic agents at the indicated frequency. Tumor size and mouse body weight was measured twice weekly after treatment.

B1: 19D12: anti-IGF1R antibody: light chain variable region amino acids 20-128 of SEQ ID NO: 8, heavy chain variable region amino acids 20-137 of SEQ ID NO: 10 (antibody, V domains shown)
VL: MSPSQLIGFLLLWVPASRGEIVLTQSPGTLSVSPGERATLSCRASQSIGSSLHWYQQKPGQAPRLLIKYASQSLSGIPDRFSGSGSGTDFTLTISRLEPEDFAVYYCHQSSRLPHTFGQGTKVEIKRT
VH: MEFGLSWVFLVAILKGVQCEVQLVQSGGGLVKPGGSLRLSCAASGFTFSSFAMHWVRQAPGKGLEWISVIDTRGATYYADSVKGRFTISRDNAKNSLYLQMNSLRAEDTAVYYCARLGNFYYGMDVWGQGTTVTVSS
modifications: variable regions only: LC 20-128, HC 20-137; constant regions lack entries
- Tumor Average Size (0.02 mg 19D12, Day 0): 74 mm^3
- Tumor Average Size (0.02 mg 19D12, Day 4): 144 mm^3
- Tumor Average Size (0.02 mg 19D12, Day 7): 337 mm^3
- Tumor Average Size (0.02 mg 19D12, Day 11): 534 mm^3
- Tumor Average Size (0.02 mg 19D12, Day 14): 714 mm^3
- Tumor Average Size (0.02 mg 19D12, Day 18): 926 mm^3
- Tumor Average Size (0.1 mg 19D12, Day 0): 74 mm^3
- Tumor Average Size (0.1 mg 19D12, Day 4): 126 mm^3
- Tumor Average Size (0.1 mg 19D12, Day 7): 232 mm^3
- Tumor Average Size (0.1 mg 19D12, Day 11): 372 mm^3
- Tumor Average Size (0.1 mg 19D12, Day 14): 520 mm^3
- Tumor Average Size (0.1 mg 19D12, Day 18): 681 mm^3
- Tumor Average Size (1 mg 19D12, Day 0): 75 mm^3
- Tumor Average Size (1 mg 19D12, Day 4): 103 mm^3
- Tumor Average Size (1 mg 19D12, Day 7): 183 mm^3
- Tumor Average Size (1 mg 19D12, Day 11): 284 mm^3
- Tumor Average Size (1 mg 19D12, Day 14): 442 mm^3
- Tumor Average Size (1 mg 19D12, Day 18): 562 mm^3
